Results on seven molecules are retold here after PMC4823717.

Sequences and labels used below:
T1: Ffh (the protein subunit of signal recognition particle, SRP), wild type, P0AGD7
T1 chain: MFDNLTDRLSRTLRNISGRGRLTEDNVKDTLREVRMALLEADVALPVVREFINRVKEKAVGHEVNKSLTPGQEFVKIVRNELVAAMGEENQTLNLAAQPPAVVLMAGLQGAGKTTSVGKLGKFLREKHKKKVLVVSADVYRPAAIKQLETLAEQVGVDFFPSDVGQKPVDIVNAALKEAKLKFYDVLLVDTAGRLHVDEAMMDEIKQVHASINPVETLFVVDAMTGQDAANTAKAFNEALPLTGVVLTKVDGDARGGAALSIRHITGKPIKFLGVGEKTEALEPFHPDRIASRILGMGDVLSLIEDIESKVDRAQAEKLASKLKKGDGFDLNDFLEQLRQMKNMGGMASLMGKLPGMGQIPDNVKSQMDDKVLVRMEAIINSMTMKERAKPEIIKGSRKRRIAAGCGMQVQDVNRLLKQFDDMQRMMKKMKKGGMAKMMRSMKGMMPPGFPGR

B1: His6-σ32 T52pBPA, P0AGB3 K51E (protein)
chain: MTDKMQSLALAPVGNLDSYIRAANAWPMLSADEERALAEKLHYHGDLEAAE
B2: His6-σ32 T52pBPA, P0AGB3 A50D (protein)
chain: MTDKMQSLALAPVGNLDSYIRAANAWPMLSADEERALAEKLHYHGDLEADK

The target of the first test is T1, Ffh (the protein subunit of signal …). As to the kind of experiment: in vivo photo-cross-linking ([35S]Met pulse-labeling, immunoprecipitation, SDS-PAGE, phosphorimaging). The conditions noted are these: chain shown with the change; 30 °C, M9-based medium with 1 mM pBPA, 1 mM IPTG for 6 min, [35S]Met for 1 min, UV irradiation; parent: 100; read off a plot.
Consider MTDKMQSLALAPVGNLDSYIRAANAWPMLSADEERALAEKLHYHGDLEAD [His6-σ32 K51pBPA, P0AGB3 A50D], for which the percent of parent (parent (no dysregulation mutation) = 100) came to 7.6.
The same measure, in the same setting: with B1 the figure was 95; with B2, 36.

The target in another test is Ffh (the protein subunit of signal recognition particle, SRP), wild type (UniProt P0AGD7). The description is as above. The following applies: 30 °C, M9-based medium with 1 mM pBPA, 1 mM IPTG for 6 min, [35S]Met for 1 min, UV irradiation; parent: 100; read off a plot.
Turning to “His6-σ32 T52pBPA (from UniProt P0AGB3) I54N”, the percent of parent (parent (no dysregulation mutation) = 100) is 43.
For the molecule “His6-σ32 K51pBPA (from UniProt P0AGB3) R91P”, the percent of parent (parent (no dysregulation mutation) = 100) was 78.
The same measure, in the same setting: with “His6-σ32 K51pBPA (from UniProt P0AGB3) I54N” the figure was 53; with “His6-σ32 T52pBPA (from UniProt P0AGB3) R91P”, 76.
